Read-outs that look alike come from different tables or passages of the source.
How the values were obtained:
[1] = biological target: Transthyretin, wild type, first purification protocol (TTR1st) (human (by the printed accession P02766)) (UniProt P02766); test: SEC
[2] = biological target: Transthyretin, wild type, first purification protocol (TTR1st) (human (by the printed accession P02766)) (UniProt P02766); test: SEC; remark: listed apart in the source

- percent of the sample as oligomers (oTTR) [1]: 7%
- percent of the sample as tetramer [1]: 93%
- stoichiometry N [1]: 4
- percent of the sample as oligomers (oTTR) [2]: 4%
Substance: Transthyretin, wild type, first purification protocol (TTR1st) (from UniProt P02766 21-147) (enzyme)

From paper doi:10.1101/2023.08.10.552896
